Measured values reported in the supplement of paper PMC7877785.
± gives the uncertainty stated by the source.

Assay: self-splicing fitness, log relative to wild type (ln ratio); higher = more splicing; Tetrahymena group I intron in knt gene, E. coli kanamycin selection, DiMSum; sequences stand for … in CUCUCU…GGAGGGAAAAGUUAUCAGGCAUGCACCUGGUAGCUAGUCUUUAAACCAAUAGAUUGCAUCGGUUUAAAAGGCAAGACCGUCAAAUUGCGGGAAAGGGGUCAACAGCCGUUCAGUACCAAGUCUCAGGGGAAACUUUGAGAUGGCCUUGCAAAGGGUAUGGUAAUAAGCUGACGGACAUGGUCCUAACCACGCAGCCAAGUCCUAAGUCAACAGAUCUUCUGUUGAUAUGGAUGCAGUUCACAGACUAAAUGUCGGUCGGGGAAGAUGUAUUCUUCUCAUAAGAUAUAGUCGGACCUCUCCUUAAUGGGAGCUAGCGGAUGAAGUGAUGCAACACUGGAGCCGCUGGGAACUAAUUUGUAUGCGAAAGUAUAUUGAUUAGUUUUGGAGUACUCGUGGUCG
Summary of the method: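 Pooled colonies went to amplicon sequencing on an Illumina HiSeq 2500 after six replicate transformations. The plates were LB agar with 100 μg/mL carbenicillin, 50 μM IPTG and 0.2% rhamnose, with or without 25 μg/mL kanamycin, incubated overnight at 37°C or 30°C. The E. coli BL21(DE3) library had all eight P1ex-region intron nucleotides randomised, the intron placed in the knt kanamycin-resistance gene on pET-22b(+). DiMSum fitness is the error-weighted combination of replicate fold changes, kanamycin against none, normalised to wild type.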

Sequence | self-splicing fitness (ln) (30 °C) | self-splicing fitness (ln) (37 °C)
GCCAAGCAAUAUUACGCCCC | -1.02 ± 0.21 | -0.946 ± 0.22
GCCAAGCAAUAUUACGCCCG | -2.72 ± 0.29 | -0.836 ± 0.32
GCCAAGCAAUAUUACGCUGC | -3.01 ± 0.27 | -2.04 ± 0.28
GCCAAGCAAUAUUACGCUUG | -3.72 ± 0.12 | -2.41 ± 0.14
GCCAAGCAAUAUUACGGAUC | -0.959 ± 0.071 | -0.179 ± 0.098
GCCAAGCAAUAUUACGGGUU | -2.48 ± 0.09 | -1.79 ± 0.1
GCCAAGCAAUAUUACGGUGG | -3.54 ± 0.15 | -1.26 ± 0.14
GCCAAGCAAUAUUACGUAAG | -1.37 ± 0.11 | -0.513 ± 0.13
GCCAAGCAAUAUUACGUCUG | -3.62 ± 0.19 | -2.02 ± 0.16
GCCAAGCAAUAUUACGUGCC | -3.36 ± 0.25 | -0.392 ± 0.17
GCCAAGCAAUAUUACGUUCG | -3.08 ± 0.17 | -1.22 ± 0.13
GCCAAGCAAUAUUACGUUGC | -2.91 ± 0.13 | -0.915 ± 0.15
GCCAAGCAAUAUUACGUUUU | -2.86 ± 0.085 | -1.3 ± 0.093
GCCCAGCAAUAUUACGAAGA | -1.46 ± 0.12 | -0.344 ± 0.14
GCCCAGCAAUAUUACGACGG | -3.59 ± 0.25 | -3.13 ± 0.33
GCCCAGCAAUAUUACGAUUA | -1.71 ± 0.1 | -0.936 ± 0.089
GCCCAGCAAUAUUACGCACG | -3.39 ± 0.2 | 
GCCCAGCAAUAUUACGCCGG | -3.34 ± 0.27 | -2.9 ± 0.47
GCCCAGCAAUAUUACGCGAC | -2.9 ± 0.17 | -1.55 ± 0.14
GCCCAGCAAUAUUACGGAAC | -1 ± 0.055 | -0.0936 ± 0.079
GCCCAGCAAUAUUACGGACC | -3.47 ± 0.23 | -2.94 ± 0.31
GCCCAGCAAUAUUACGGGAU | -1.74 ± 0.081 | -1.25 ± 0.1
GCCCAGCAAUAUUACGGUAC | -1.27 ± 0.059 | -0.241 ± 0.073
GCCCAGCAAUAUUACGUACA | -2.17 ± 0.1 | -0.789 ± 0.096

Sequence | self-splicing fitness (ln) (30 °C) | self-splicing fitness (ln) (37 °C)
GCCCAGCAAUAUUACGUCAU | -2.82 ± 0.1 | -1.29 ± 0.097
GCCCAGCAAUAUUACGUCCU | -1.19 ± 0.11 | -0.722 ± 0.17
GCCCAGCAAUAUUACGUCUU | -0.849 ± 0.061 | -0.668 ± 0.09
GCCCAGCAAUAUUACGUGUA | -0.725 ± 0.046 | -0.0902 ± 0.058
GCCCAGCAAUAUUACGUUCG | -3.71 ± 0.18 | -2.52 ± 0.22
GCCGAGCAAUAUUACGACUA | -0.948 ± 0.16 | -2.21 ± 0.27
GCCGAGCAAUAUUACGAUUA | -1.44 ± 0.13 | -1.39 ± 0.15
GCCGAGCAAUAUUACGAUUC | -1.3 ± 0.13 | 0.294 ± 0.17
GCCGAGCAAUAUUACGGACC | -2.47 ± 0.35 | -1.51 ± 0.39
GCCGAGCAAUAUUACGGCAU | -4.31 ± 0.46 | -3.06 ± 0.35
GCCGAGCAAUAUUACGGCUU |  | -2.08 ± 0.41
GCCGAGCAAUAUUACGGUAG | -1.99 ± 0.15 | -3.24 ± 0.33
GCCGAGCAAUAUUACGGUGC | -2.75 ± 0.24 | -2.48 ± 0.29
GCCGAGCAAUAUUACGUACG | -2.46 ± 0.43 | -1.56 ± 0.26
GCCGAGCAAUAUUACGUCAG | -3.33 ± 0.16 | -1.87 ± 0.19
GCCGAGCAAUAUUACGUCGA | -2.36 ± 0.2 | -0.182 ± 0.14
GCCGAGCAAUAUUACGUCGG | -4.39 ± 0.46 | 
GCCGAGCAAUAUUACGUGGA | -1.68 ± 0.12 | -1.76 ± 0.15
GCCUAGCAAUAUUACGAACA | -2.17 ± 0.22 | -1.03 ± 0.19
GCCUAGCAAUAUUACGACCA | -1.08 ± 0.14 | -1.34 ± 0.13
GCCUAGCAAUAUUACGACCC | -1.59 ± 0.21 | -0.272 ± 0.25
GCCUAGCAAUAUUACGAGAC | -1.85 ± 0.16 | 0.662 ± 0.12
GCCUAGCAAUAUUACGAUGU | -0.317 ± 0.081 | 0.35 ± 0.12
GCCUAGCAAUAUUACGCCAU |  | -1.68 ± 0.45
